Measured values reported in patent US20210032308A1.
pKd: −log10 of the molar value. Several values for one entry are separate records, joined by “and”; a condition that tells them apart may be missing. Equal values may be shown once.

Experiments:
[1] = target: human CD2 on primary human T cells (human) (UniProt P06729); assay: flow cytometry, calculated Kd of competitor antibody; human CD4 naïve T cells
[2] = target: human CD2 on primary human T cells (human) (UniProt P06729); assay: flow cytometry, calculated Kd of competitor antibody; human CD8 naïve T cells
[3] = target: human CD2 on primary human T cells (human) (UniProt P06729); assay: flow cytometry, calculated Kd of competitor antibody; human CD4 memory T cells
[4] = target: human CD2 on primary human T cells (human) (UniProt P06729); assay: flow cytometry, calculated Kd of competitor antibody; human CD8 memory T cells
[5] = target: human CD2 on primary human T cells (human) (UniProt P06729); assay: flow cytometry, calculated Kd of competitor antibody; expanded human CD4 Treg cells
[6] = target: human CD2 on primary human T cells (human) (UniProt P06729); assay: flow cytometry, calculated Kd of competitor antibody; human CD4 central memory T cells
[7] = target: human CD2 on primary human T cells (human) (UniProt P06729); assay: flow cytometry, calculated Kd of competitor antibody; human CD4 effector memory T cells

human CD2 on primary human T cells (human), sequence (P06729 25-351): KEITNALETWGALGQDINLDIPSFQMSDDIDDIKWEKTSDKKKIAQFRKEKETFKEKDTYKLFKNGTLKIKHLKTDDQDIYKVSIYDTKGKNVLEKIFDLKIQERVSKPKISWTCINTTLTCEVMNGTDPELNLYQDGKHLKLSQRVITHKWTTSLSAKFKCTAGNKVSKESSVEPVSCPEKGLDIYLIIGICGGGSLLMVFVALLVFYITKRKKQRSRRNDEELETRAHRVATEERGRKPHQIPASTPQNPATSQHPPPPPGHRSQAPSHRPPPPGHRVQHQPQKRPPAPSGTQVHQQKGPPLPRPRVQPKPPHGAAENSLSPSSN

## anti-CD2-FITC (clone RPA2.10) (antibody)
[1]
  pKd: 7.74 and 7.62
[2]
  pKd: 7.83 and 7.51
[3]
  pKd: 7.63 and 7.38
[4]
  pKd: 7.96
[5]
  pKd: 7.17
[6]
  pKd: 7.35
[7]
  pKd: 7.47
